Target: mortalin (UniProt P38646 47-679)
Assay: cell-based or functional assay

Chain of mortalin (P38646 47-679 limits assumed): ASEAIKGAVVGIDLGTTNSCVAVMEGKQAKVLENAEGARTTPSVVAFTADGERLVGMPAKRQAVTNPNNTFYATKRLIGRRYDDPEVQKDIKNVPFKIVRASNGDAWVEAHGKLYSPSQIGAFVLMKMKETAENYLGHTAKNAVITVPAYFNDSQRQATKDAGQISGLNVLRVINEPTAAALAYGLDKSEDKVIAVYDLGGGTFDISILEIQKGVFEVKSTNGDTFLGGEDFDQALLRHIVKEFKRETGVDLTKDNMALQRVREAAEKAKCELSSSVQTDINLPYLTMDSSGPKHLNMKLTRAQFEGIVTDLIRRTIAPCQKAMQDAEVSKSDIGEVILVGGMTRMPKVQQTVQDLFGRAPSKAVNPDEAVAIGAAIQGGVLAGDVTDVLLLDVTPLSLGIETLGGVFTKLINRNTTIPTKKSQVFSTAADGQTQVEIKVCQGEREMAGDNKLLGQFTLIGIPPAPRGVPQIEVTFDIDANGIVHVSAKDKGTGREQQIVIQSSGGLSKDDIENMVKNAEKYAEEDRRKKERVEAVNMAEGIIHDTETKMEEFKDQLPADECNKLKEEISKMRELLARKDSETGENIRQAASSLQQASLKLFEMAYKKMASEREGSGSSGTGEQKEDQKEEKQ

Binder: VGFPVAAVGFPVGRKKRRQRRRPPQ [SMRwt-CPP peptide]
- IC50 of proliferation, MTT assay, K562 cells, 24 hours: 907 nM/mL
- IC50 of proliferation, MTT assay, MCF-7 cells, 24 hours: 180 nM/mL
- IC50 of proliferation, MTT assay, MDA-MB-231 cells, 24 hours: 476 nM/mL
